In patent US10813554B2, “Medical imaging device and methods of use” (Lumicell, Inc., priority 2013, dated 2020):

Assay: Emission intensity of fluorophores exposed to different excitation wavelengths
Assay type: physicochemical
Conditions: shift in excitation wavelength
Excerpt: FIGS. 10A and 10B present graphs of emission intensities for two separate fluorphores, mPlum and cy5, exposed to different excitation wavelengths. As shown in FIG. 10A the shift in excitation wavelength yielded a decrease in emission intensity of about 96% for fluorphore 1 which was mPlum.

Molecule | decrease in emission intensity (FIG. 10A) | increase in emission intensity
mPlum | about 96% | –
CCN1/C(=C/C=C/C=C/C2=[N+](CCCCCC(=O)O)c3ccc(S(=O)(=O)O)cc3C2(C)C)C(C)(C)c2cc(S(=O)(=O)[O-])ccc21 [cy5] | – | about 156%
